Test results reported in patent US20160237095A1 (KADMON, published 2016).
Residue numbers refer to the chain shown, from its start. One block for each binder: values may come before it.

Columns and labels:
murine VEGFR2 [1] = molecular target: T1, murine VEGFR2 (murine, UniProt P35918 20-762, limits assumed); assay: blocking ELISA, mVEGF binding to mVEGFR2 (right panel) [continued) B]
T1 construct: Antigen in the ELISA and Biacore assays; also called mVEGFR2; mouse VEGFR2

murine VEGFR2 [2] = molecular target: T1, murine VEGFR2; assay: ELISA, binding to mVEGFR2 (right panel); detected with a different secondary antibody
murine VEGFR2 [3] = molecular target: T1, murine VEGFR2; assay: Biacore
rat VEGFR2 = molecular target: T2, rat VEGFR2 (rat, UniProt O08775 20-760, limits assumed); assay: Biacore
T2 construct: Antigen in the Biacore assay

human VEGFR2 [4] = molecular target: T3, human VEGFR2 (human, UniProt P35968 20-764, limits assumed); assay: Biacore
T3 construct: Antigen in the ELISA and Biacore assays; also called hVEGFR2; KDR

[5] = molecular target: T4, human VEGFR2 expressed on HUVEC and on KDR-PAE cells (human, UniProt P35968 20-1356); assay: cell binding (MFI), KDR-PAE cells
T4 construct: whole, on cells; also called hVEGFR2; hVEGR2

human VEGFR2 [6] = molecular target: T3, human VEGFR2; assay: ELISA, binding to hVEGFR2 (left panel)
murine VEGFR2 [7] = molecular target: T1, murine VEGFR2; assay: ELISA, binding to mVEGFR2 (right panel)
human VEGFR2 [8] = molecular target: T3, human VEGFR2; assay: blocking ELISA, hVEGF binding to hVEGFR2 (left panel) [continued) B]

T1 sequence (P35918 20-762 limits assumed): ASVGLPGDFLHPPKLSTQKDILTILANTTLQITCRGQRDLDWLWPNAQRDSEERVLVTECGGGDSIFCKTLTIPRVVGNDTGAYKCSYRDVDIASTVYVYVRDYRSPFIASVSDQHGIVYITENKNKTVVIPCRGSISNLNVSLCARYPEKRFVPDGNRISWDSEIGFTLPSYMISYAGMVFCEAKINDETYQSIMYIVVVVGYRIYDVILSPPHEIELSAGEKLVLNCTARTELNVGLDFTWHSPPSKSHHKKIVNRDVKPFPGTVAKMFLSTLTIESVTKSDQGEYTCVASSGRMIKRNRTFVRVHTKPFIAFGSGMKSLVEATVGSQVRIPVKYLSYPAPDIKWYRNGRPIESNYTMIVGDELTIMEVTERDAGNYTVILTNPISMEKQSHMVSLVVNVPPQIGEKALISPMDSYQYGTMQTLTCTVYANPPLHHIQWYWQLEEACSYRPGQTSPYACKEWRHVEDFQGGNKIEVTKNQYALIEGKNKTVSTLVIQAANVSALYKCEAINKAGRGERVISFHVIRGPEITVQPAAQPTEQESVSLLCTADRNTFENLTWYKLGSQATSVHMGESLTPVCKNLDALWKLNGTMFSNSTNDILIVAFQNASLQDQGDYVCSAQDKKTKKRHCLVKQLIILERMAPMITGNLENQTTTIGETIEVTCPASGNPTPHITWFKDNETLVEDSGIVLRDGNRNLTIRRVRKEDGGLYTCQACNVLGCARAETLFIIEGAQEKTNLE
T2 sequence (O08775 20-760 limits assumed): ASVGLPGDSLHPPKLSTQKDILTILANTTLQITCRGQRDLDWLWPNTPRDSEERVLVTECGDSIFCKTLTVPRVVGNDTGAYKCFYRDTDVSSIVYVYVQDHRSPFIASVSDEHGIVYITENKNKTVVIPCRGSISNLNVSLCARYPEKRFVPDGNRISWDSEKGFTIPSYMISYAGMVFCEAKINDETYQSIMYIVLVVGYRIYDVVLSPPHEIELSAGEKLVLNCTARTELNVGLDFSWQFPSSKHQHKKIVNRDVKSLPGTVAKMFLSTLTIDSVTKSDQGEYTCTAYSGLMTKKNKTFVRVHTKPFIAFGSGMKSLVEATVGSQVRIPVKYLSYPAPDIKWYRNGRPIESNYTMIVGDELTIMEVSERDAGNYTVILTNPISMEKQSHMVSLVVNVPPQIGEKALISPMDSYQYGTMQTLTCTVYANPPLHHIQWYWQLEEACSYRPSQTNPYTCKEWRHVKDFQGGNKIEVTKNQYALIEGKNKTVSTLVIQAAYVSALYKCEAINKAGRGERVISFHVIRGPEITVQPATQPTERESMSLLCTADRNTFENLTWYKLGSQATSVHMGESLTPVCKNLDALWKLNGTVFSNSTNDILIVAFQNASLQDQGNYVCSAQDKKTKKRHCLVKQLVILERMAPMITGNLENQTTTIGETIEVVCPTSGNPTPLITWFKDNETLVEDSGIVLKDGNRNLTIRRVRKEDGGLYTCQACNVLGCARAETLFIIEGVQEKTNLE
T3 sequence (P35968 20-764 limits assumed): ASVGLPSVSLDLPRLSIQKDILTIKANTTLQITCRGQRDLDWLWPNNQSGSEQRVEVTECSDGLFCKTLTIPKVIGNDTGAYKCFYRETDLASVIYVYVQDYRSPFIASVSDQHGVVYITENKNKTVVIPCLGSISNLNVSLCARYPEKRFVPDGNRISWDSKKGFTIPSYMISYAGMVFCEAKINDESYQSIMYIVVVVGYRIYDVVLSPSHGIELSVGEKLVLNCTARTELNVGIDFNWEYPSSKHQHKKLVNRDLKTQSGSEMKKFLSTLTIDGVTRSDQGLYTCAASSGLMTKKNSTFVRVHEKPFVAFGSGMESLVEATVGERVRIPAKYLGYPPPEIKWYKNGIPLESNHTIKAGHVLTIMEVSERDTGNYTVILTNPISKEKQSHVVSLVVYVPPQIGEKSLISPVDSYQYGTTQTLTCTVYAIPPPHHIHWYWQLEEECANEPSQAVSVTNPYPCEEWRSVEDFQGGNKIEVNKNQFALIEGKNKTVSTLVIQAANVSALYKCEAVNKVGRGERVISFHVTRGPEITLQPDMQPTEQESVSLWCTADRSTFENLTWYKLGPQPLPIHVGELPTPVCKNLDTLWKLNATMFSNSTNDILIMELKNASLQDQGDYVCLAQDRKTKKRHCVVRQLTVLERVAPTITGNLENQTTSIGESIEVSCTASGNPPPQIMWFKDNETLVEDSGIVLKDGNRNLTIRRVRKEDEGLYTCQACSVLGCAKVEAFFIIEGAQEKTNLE
T4 sequence (P35968 20-1356): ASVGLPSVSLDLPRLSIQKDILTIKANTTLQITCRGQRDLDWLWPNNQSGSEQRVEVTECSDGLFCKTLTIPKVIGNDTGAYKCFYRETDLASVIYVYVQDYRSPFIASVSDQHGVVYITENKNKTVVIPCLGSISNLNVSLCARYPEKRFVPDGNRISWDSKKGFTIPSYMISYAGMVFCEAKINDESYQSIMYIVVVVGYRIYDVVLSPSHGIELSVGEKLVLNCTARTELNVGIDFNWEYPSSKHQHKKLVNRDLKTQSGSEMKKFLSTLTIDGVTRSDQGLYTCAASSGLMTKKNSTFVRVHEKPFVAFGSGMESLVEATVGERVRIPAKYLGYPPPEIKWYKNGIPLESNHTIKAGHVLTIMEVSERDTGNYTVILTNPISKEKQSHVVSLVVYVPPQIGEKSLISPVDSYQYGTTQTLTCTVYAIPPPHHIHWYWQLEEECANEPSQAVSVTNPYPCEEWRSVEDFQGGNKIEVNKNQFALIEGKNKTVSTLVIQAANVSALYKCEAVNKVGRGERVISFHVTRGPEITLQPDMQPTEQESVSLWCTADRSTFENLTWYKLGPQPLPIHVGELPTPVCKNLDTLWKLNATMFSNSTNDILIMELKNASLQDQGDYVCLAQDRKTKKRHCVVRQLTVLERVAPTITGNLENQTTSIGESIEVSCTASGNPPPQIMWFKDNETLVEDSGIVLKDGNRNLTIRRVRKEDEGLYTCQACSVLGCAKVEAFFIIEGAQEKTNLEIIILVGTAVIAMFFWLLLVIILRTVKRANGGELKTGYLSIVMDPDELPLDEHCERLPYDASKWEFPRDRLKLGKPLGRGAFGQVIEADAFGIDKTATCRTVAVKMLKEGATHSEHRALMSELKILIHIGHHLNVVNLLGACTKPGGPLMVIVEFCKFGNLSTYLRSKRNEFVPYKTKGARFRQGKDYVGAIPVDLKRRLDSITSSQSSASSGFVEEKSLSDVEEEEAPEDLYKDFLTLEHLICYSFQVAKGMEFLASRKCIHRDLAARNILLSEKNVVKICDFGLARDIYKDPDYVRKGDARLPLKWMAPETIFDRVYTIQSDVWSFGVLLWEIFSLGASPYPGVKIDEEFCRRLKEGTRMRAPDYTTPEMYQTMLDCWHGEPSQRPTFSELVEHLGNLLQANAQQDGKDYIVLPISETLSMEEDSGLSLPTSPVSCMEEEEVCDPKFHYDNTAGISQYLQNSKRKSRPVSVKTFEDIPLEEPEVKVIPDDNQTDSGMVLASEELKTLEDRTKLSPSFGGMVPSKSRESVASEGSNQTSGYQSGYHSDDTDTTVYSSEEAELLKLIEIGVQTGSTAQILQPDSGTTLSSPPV

IC50 (read off the curve) (murine VEGFR2 [1]): ~0.6 nM
EC50 (read off the curve) (murine VEGFR2 [2]): ~0.3 nM
B1: DC 101 (a murine monoclonal Ab that binds to murine VEGFR2) (antibody, V domains shown)
VH: EVQLVETGGGLVQPGNSLKLSCATSGFIFSTTWMNWIRQTPGKRLEWLAQIEDKSNNYFISYSESVKGRFTISRDDSKSSVYLQMNNLKEEDTAIYYCSWKYRSNYYFDYWGQGVMVTVSS
VL: DIVLTQSPALAVSLEQRATISCKTSQNVDYYGISYLHWYQQKPGQQPKLLIYEGSNLASGIPARFSGSGSGTDFTLTIDPVEADDIVTYYCQQSKDYPYTFGAGTKLELK

Kd (murine VEGFR2 [3]): 79.2 nM
Kd (rat VEGFR2): 43.1 nM
Kd (human VEGFR2 [4]): 7.65 nM
B2: Mab 149 (antibody, V domains shown)
VH: EVQLLESGGGLVQPGGSLRLSCAASGFTFSWYVMGWVRQAPGKGLEWVSSIYPSGGATNYADSVKGRFTISRDNSKNTLYLQMNSLRAEDTAVYYCARGNYLDYWGQGTLVTVSS
VL: DIQMTQSPGTLSLSPGEGATLSCRASQSVSSNYFGWYQQKPGQAPRLLIYGASSRATGIPDRFSGSGSGTDFTLTISRLEPEDSAVYYCQQFDSSPLSFGGGTKVEIKR

Kd (rat VEGFR2): 31.2 nM
B3: Mab 138 (antibody, V domains shown)
VH: B2 VH with L102F
VL: B2 VL with E17D, G18R, F34L, G35A, L47V, S54T, S64T

Kd (murine VEGFR2 [3]): 29.4 nM
Kd (rat VEGFR2): 13.9 nM
Kd (human VEGFR2 [4]): 2.51 nM
EC50 (read off the curve) [5]: ~0.3 nM
EC50 (read off the curve) (human VEGFR2 [6]): ~0.1 nM
EC50 (read off the curve) (murine VEGFR2 [7]): ~0.1 nM
IC50 (read off the curve) (human VEGFR2 [8]): ~0.4 nM
IC50 (read off the curve) (murine VEGFR2 [1]): ~0.5 nM
B4: Mab 147 (antibody, V domains shown)
VH: B2 VH with S54Q, N59S, L102F
VL: B2 VL with S95L, S98T
